Substitutions are numbered along the chain they refer to. Blank lines part the entries; values can stand above or below the binder they belong to.
Legend:
[1] = target: anti-VEGF/ANG2 antibody (wild-type IgG1 subclass) (human) [IgG part: P01857]; assay: sandwich ELISA assay C; capture on SA plate; tracer FcγRI-Dig; analyte 2 ng/mL
[2] = target: anti-VEGF/ANG2 antibody (wild-type IgG1 subclass) (human) [IgG part: P01857]; assay: sandwich ELISA assay B; capture on SA plate; tracer M1.7.10-Dig; analyte 25 ng/mL
target antibodies [3] = assay: depletion of target antibody from sample; concentration before depletion 3.00 µg/mL
[4] = target: anti-VEGF/ANG2 antibody (wild-type IgG1 subclass) (human) [IgG part: P01857]; assay: sandwich ELISA assay C; capture on SA plate; tracer FcγRI-Dig; analyte 13 ng/mL
[5] = target: anti-VEGF/ANG2 antibody (wild-type IgG1 subclass) [IgG part: P01857]; assay: sandwich ELISA assay A; capture M1.7.10-Bi; antibody 5 at 3 ng/mL
[6] = target: anti-VEGF/ANG2 antibody (wild-type IgG1 subclass) (human) [IgG part: P01857]; assay: sandwich ELISA assay C; capture on SA plate; tracer FcγRI-Dig; analyte 0 ng/mL (blank)
target antibodies [7] = assay: depletion of target antibody from sample; concentration before depletion 0.30 µg/mL
[8] = target: anti-VEGF/ANG2 antibody (wild-type IgG1 subclass) (human) [IgG part: P01857]; assay: sandwich ELISA assay C; capture on SA plate; tracer FcγRI-Dig; analyte 25 ng/mL
[9] = target: anti-VEGF/ANG2 antibody (wild-type IgG1 subclass) (human) [IgG part: P01857]; assay: sandwich ELISA assay B; capture on SA plate; tracer M1.7.10-Dig; analyte 0 ng/mL (blank)
[10] = target: anti-P-Selectin antibody (IgG4 subclass with mutations S228P/L235E) (human) [IgG part: P01861]; assay: sandwich ELISA assay B; capture on SA plate; tracer M1.7.10-Dig; analyte 3 ng/mL
[11] = target: anti-VEGF/ANG2 antibody (IgG1 subclass with mutations P329G/L234A/L235A/I253A/H310A/H435A) (human) [IgG part: P01857]; assay: as above
target antibodies [12] = assay: depletion of target antibody from sample; concentration before depletion 1000.00 µg/mL
[13] = target: anti-VEGF/ANG2 antibody (wild-type IgG1 subclass) (human) [IgG part: P01857]; assay: sandwich ELISA assay B; capture on SA plate; tracer M1.7.10-Dig; analyte 100 ng/mL
[14] = target: anti-VEGF/ANG2 antibody (wild-type IgG1 subclass) (human) [IgG part: P01857]; assay: sandwich ELISA assay B; capture on SA plate; tracer M1.7.10-Dig; analyte 50 ng/mL
[15] = target: anti-P-Selectin antibody (IgG4 subclass with mutations S228P/L235E) [IgG part: P01861]; assay: sandwich ELISA assay A; capture M1.7.10-Bi; antibody 4 at 2 ng/mL
[16] = target: anti-Dig antibody (IgG1 subclass with mutations P329G/L234A/L235A) [IgG part: P01857]; assay: sandwich ELISA assay D; tracer M1.7.10-Dig; analyte conc. not printed (row 8 of 8)
[17] = target: anti-VEGF/ANG2 antibody (IgG1 subclass with mutations P329G/L234A/L235A) [IgG part: P01857]; assay: sandwich ELISA assay E; tracer M1.7.10-Dig; analyte 2) at 100 ng/mL
[18] = target: anti-Dig antibody (IgG1 subclass with mutations P329G/L234A/L235A) [IgG part: P01857]; assay: sandwich ELISA assay D; tracer M1.19.31-Dig; analyte conc. not printed (row 3 of 8)
[19] = target: anti-Dig antibody (IgG1 subclass with mutations P329G/L234A/L235A) [IgG part: P01857]; assay: sandwich ELISA assay D; tracer M1.19.31-Dig; analyte conc. not printed (row 1 of 8)
[20] = target: anti-Dig antibody (IgG1 subclass with mutations P329G/L234A/L235A) [IgG part: P01857]; assay: sandwich ELISA assay D; tracer M1.19.31-Dig; analyte conc. not printed (row 6 of 8)
[21] = target: anti-VEGF/ANG2 antibody (IgG1 subclass with mutations P329G/L234A/L235A) [IgG part: P01857]; assay: sandwich ELISA assay E; tracer M1.7.10-Dig; analyte 2) at 0 ng/mL (blank)
[22] = target: anti-VEGF/ANG2 antibody (IgG1 subclass with mutations P329G/L234A/L235A/I253A/H310A/H435A) [IgG part: P01857]; assay: sandwich ELISA assay E; tracer M1.7.10-Dig; analyte 1) at 0 ng/mL (blank)
[23] = target: anti-VEGF/ANG2 antibody (IgG1 subclass with mutations P329G/L234A/L235A) [IgG part: P01857]; assay: sandwich ELISA assay E; tracer M1.7.10-Dig; analyte 2) at 3.124 ng/mL
[24] = target: anti-Dig antibody (IgG1 subclass with mutations P329G/L234A/L235A) [IgG part: P01857]; assay: sandwich ELISA assay D; tracer M1.7.10-Dig; analyte conc. not printed (row 4 of 8)
[25] = target: anti-VEGF/ANG2 antibody (IgG1 subclass with mutations P329G/L234A/L235A/I253A/H310A/H435A) [IgG part: P01857]; assay: sandwich ELISA assay E; tracer M1.7.10-Dig; analyte 1) at 3.124 ng/mL
[26] = target: anti-VEGF/ANG2 antibody (IgG1 subclass with mutations P329G/L234A/L235A/I253A/H310A/H435A) [IgG part: P01857]; assay: sandwich ELISA assay E; tracer M1.7.10-Dig; analyte 1) at 1.5625 ng/mL

- signal [OD405 nm] [1]: 0.077 OD405 nm
- signal [OD405 nm] [2]: 0.047 OD405 nm
- concentration after depletion (target antibodies [3]): 0.0023 µg/mL
- recovery [%] (target antibodies [3]): 0.008%
- signal [OD405 nm] [4]: 0.07 OD405 nm
- signal [OD405 nm] [5]: 0.039 OD405 nm
- signal [OD405 nm] [6]: 0.069 OD405 nm
- concentration after depletion (target antibodies [7]): 0.0001 µg/mL
- recovery [%] (target antibodies [7]): 0.039%
- signal [OD405 nm] [8]: 0.066 OD405 nm
- signal [OD405 nm] [9]: 0.037 OD405 nm
- signal [OD405 nm] [10]: 0.039 OD405 nm
- signal [OD405 nm] [11]: 0.039 OD405 nm
- concentration after depletion (target antibodies [12]): 0.0163 µg/mL
- recovery [%] (target antibodies [12]): 0.002%
- signal [OD405 nm] [13]: 0.061 OD405 nm
- signal [OD405 nm] [14]: 0.049 OD405 nm
- signal [OD405 nm] [15]: 0.04 OD405 nm
B1: anti-AAA variant Fc-region antibody M1.6.22 (antibody, V domains shown)
VH: EVQLVESGGDLVKPGGSLKLSCAASGFTFSSYGMSWVRQTPDKRLEWVATISSGGSYIYYPDSVKGRFTISRDNAKNTLYLQMSSLKSEDTAMYYCARLGMITTGYAMDYWGQGTSVTVSS
VL: DVLMTQTPLSLPVSLGDQASISCRSSQTIVHSTGHTYLEWFLQKPGQSPKLLIYKVSNRFSGVPDRFSGSGSGTDFTLKISRVEAEDLGVYYCFQGSHVPYTFGGGTKLEIK

- concentration after depletion (target antibodies [3]): 0.0023 µg/mL
- recovery [%] (target antibodies [3]): 0.078%
- signal [OD405 nm] [5]: 0.033 OD405 nm
- signal 10% cynomolgus serum [OD405 nm] [16]: 0.044 OD405 nm
- signal 10% human serum [OD405 nm] [16]: 2.51 OD405 nm
- signal buffer [OD405 nm] [16]: 0.031 OD405 nm
- concentration after depletion (target antibodies [7]): 0.0002 µg/mL
- recovery [%] (target antibodies [7]): 0.065%
- signal [OD405 nm] [17]: 2.27 OD405 nm
- signal 10% cynomolgus serum [OD405 nm] [18]: 0.357 OD405 nm
- signal 10% human serum [OD405 nm] [18]: 1.84 OD405 nm
- signal buffer [OD405 nm] [18]: 0.04 OD405 nm
- signal 10% cynomolgus serum [OD405 nm] [19]: 1.87 OD405 nm
- signal 10% human serum [OD405 nm] [19]: 2.58 OD405 nm
- signal buffer [OD405 nm] [19]: 0.05 OD405 nm
- signal 10% cynomolgus serum [OD405 nm] [20]: 0.082 OD405 nm
- signal 10% human serum [OD405 nm] [20]: 1.67 OD405 nm
- signal buffer [OD405 nm] [20]: 0.033 OD405 nm
- signal [OD405 nm] [21]: 0.027 OD405 nm
- signal [OD405 nm] [22]: 0.027 OD405 nm
- signal [OD405 nm] [10]: 0.05 OD405 nm
- signal [OD405 nm] [11]: 0.036 OD405 nm
- signal [OD405 nm] [23]: 0.316 OD405 nm
- signal 10% cynomolgus serum [OD405 nm] [24]: 0.194 OD405 nm
- signal 10% human serum [OD405 nm] [24]: 2.48 OD405 nm
- signal buffer [OD405 nm] [24]: 0.032 OD405 nm
- signal [OD405 nm] [25]: 0.383 OD405 nm
- signal [OD405 nm] [26]: 0.224 OD405 nm
- concentration after depletion (target antibodies [12]): 0.0169 µg/mL
- recovery [%] (target antibodies [12]): 0.002%
- signal [OD405 nm] [15]: 0.034 OD405 nm
B2: anti-variant (human) Fc-region antibody M1.3.17 (antibody, V domains shown)
VH: EVKLLESGGGLVQPGGSLKLSCAASGIDFRRYWMNWVRQAPGKGLEWIGEIDPDSSTINYTPSLKDKFIISRDNAKNTMYLQMRKVRSEDTALYYCARPYDYGAWFAYWGQGTLVTVSA
VL: QAVVTQESALTTSPGETVTLTCRSTTGAVTTSNYANWVQEKPDHLFTGLIGGTNKRAPGVPARFSGSLIGDKAALTITGAQTEDEAIYFCALWYSDHWVFGGGTKLTVL

- signal [OD405 nm] [1]: 0.058 OD405 nm
- signal [OD405 nm] [2]: 0.041 OD405 nm
- signal [OD405 nm] [4]: 0.057 OD405 nm
- signal [OD405 nm] [5]: 0.038 OD405 nm
- signal 10% cynomolgus serum [OD405 nm] [16]: 0.031 OD405 nm
- signal 10% human serum [OD405 nm] [16]: 2.45 OD405 nm
- signal buffer [OD405 nm] [16]: 0.033 OD405 nm
- signal [OD405 nm] [6]: 0.073 OD405 nm
- signal [OD405 nm] [8]: 0.063 OD405 nm
- signal [OD405 nm] [17]: 2.22 OD405 nm
- signal 10% cynomolgus serum [OD405 nm] [18]: 0.438 OD405 nm
- signal 10% human serum [OD405 nm] [18]: 1.6 OD405 nm
- signal buffer [OD405 nm] [18]: 0.045 OD405 nm
- signal 10% cynomolgus serum [OD405 nm] [19]: 2.25 OD405 nm
- signal 10% human serum [OD405 nm] [19]: 2.5 OD405 nm
- signal buffer [OD405 nm] [19]: 0.054 OD405 nm
- signal 10% cynomolgus serum [OD405 nm] [20]: 0.049 OD405 nm
- signal 10% human serum [OD405 nm] [20]: 1.36 OD405 nm
- signal buffer [OD405 nm] [20]: 0.033 OD405 nm
- signal [OD405 nm] [21]: 0.028 OD405 nm
- signal [OD405 nm] [9]: 0.039 OD405 nm
- signal [OD405 nm] [22]: 0.025 OD405 nm
- signal [OD405 nm] [10]: 0.031 OD405 nm
- signal [OD405 nm] [11]: 0.04 OD405 nm
- signal [OD405 nm] [23]: 0.298 OD405 nm
- signal 10% cynomolgus serum [OD405 nm] [24]: 0.223 OD405 nm
- signal 10% human serum [OD405 nm] [24]: 2.46 OD405 nm
- signal buffer [OD405 nm] [24]: 0.034 OD405 nm
- signal [OD405 nm] [25]: 0.363 OD405 nm
- signal [OD405 nm] [26]: 0.208 OD405 nm
- signal [OD405 nm] [13]: 0.047 OD405 nm
- signal [OD405 nm] [14]: 0.04 OD405 nm
- signal [OD405 nm] [15]: 0.036 OD405 nm
B3: anti-variant (human) Fc-region antibody M1.7.24 (antibody, V domains shown)
VH: B2 VH with I27F, R30S, D52T, M79L, R84I, A97V, Y108S
VL: B2 VL with T25S, D96N
